Measured values as given in paper PMC4605657, “Interaction between TATA-Binding Protein (TBP) and Multiprotein Bridging Factor-1 (MBF1) from the Filamentous Insect Pathogenic Fungus Beauveria bassiana”.

Biological target: BbMBF1 (multiprotein bridging factor 1) (Beauveria bassiana, UniProt J4WFU2 1-153)
Test: EMSA; Binding buffer (4 ul in 20 ul reaction): 60 mM KCl, 20 mM Tris pH 7.9, 5 mM MgCl2, 10 mM DTT, 0.2 mg/ml BSA, 10% glycerol; 30 min at 37 C; 6% non-denaturing PAGE
Settings: protein: recombinant; tags: 6xHis (C-terminal; pET28a, thrombin site); blunt

B1: TATA0 (dsDNA)
DNA 1: CAGTAAAAGCTTGGTAGTATTTCTTCTCTCTTTCAC
DNA 2: GTGAAAGAGAGAAGAAATACTACCAAGCTTTTACTG
- binding result: no binding

B2: TATAP (dsDNA)
DNA 1: GGAGCGGCATATGTCAAGTATAAAGAGCGGAATGTTTTTC
DNA 2: GAAAAACATTCCGCTCTTTATACTTGACATATGCCGCTCC
- binding result: no binding

B3: TATAC (dsDNA)
DNA 1: CAGTAAAAGCTTGGTAGTATTTATATCTTCTCTCTTTCAC
DNA 2: GTGAAAGAGAGAAGATATAAATACTACCAAGCTTTTACTG
- binding result: no binding
